Values of other authors, collected in US20220257789A1, “ANTI-TISSUE FACTOR ANTIBODY-DRUG CONJUGATES AND RELATED METHODS” (Iconic Therapeutics, Inc., priority 2019, published 2022).
Where two headings read alike, the source gives them in different places.

Columns and labels:
[1] = target: T1, mTF (Mus musculus, UniProt P20352); conditions: binds when a KD value can be measured on a ForteBio Octet
T1 sequence (P20352 29-294): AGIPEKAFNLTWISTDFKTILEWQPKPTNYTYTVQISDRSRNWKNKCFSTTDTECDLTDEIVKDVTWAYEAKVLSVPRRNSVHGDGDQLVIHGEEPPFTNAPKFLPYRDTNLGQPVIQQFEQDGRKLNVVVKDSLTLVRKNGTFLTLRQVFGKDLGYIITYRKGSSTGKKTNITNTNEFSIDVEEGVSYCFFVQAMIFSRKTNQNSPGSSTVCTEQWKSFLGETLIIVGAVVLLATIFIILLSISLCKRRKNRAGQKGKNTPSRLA

| Substance | binding to mouse TF [1] | dose limiting toxicities (6 mg/kg) | toxicity (dose of 2.2 mg/kg (de Bono et al. 2019)) | toxicity (dose of 3 mg/kg) | ALT and AST (in vivo) |
| --- | --- | --- | --- | --- | --- |
| humanized 5G9: humanized 5G9 anti-TF antibody described in Ngo et al., 2007; VH SEQ ID NO: 830, VL SEQ ID NO: 831 | do not bind to mouse TF | – | – | – | – |
| tisotumab vedotin: anti-TF fully human monoclonal antibody conjugated to MMAE with a protease-cleavable linker (Genmab) | – | grade 4 neutropenia and severe skin irritation and skin ulceration | dose limiting toxicity (e.g., neutropenia) | Neutropenia and skin toxicity | transient ALT and AST elevations |
